± gives the standard error. Fewer inactive variants are shown than the library holds.
B1: glmS ribozyme (parent)
chain: AUAAAAGCGCCAGAACUACAGAAAUGUAGUUGACGAGGAGGAGGUUUAUCGAAUUUUCGGCGGAUGCCUCCAAA

Variants of: B1
Assay: self-cleavage kobs at 10000 uM GlcN6P; higher = faster cleavage; RNA array
Settings: with glucosamine-6-phosphate
Outline: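 The measurements used barcoded ribozyme variants on sequenced MiSeq chips, transcribed in situ by E. coli RNA polymerase and tracked at 37 °C with a hybridised Cy3 probe. Glucosamine-6-phosphate, 40 μM to 10 mM in HEPES/KCl/Mg(OAc)2 buffer, was flowed in while tiles were imaged over ~14 h. Baseline-normalised signals, also normalised to non-cleaving reference variants, gave per-tile medians that were fit to one- or two-exponential decays for kobs. kcat and KM resulted from weighted Michaelis–Menten fits across concentrations.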
In the case of AUAAAAGCGCCAGAAGUACAGAAAUGUAGUUGUCUAGGAGGAGGUUUAUCGAAUUUUCGGCGUCUGCCUCCAAA, the “self-cleavage kobs at 10000 uM GlcN6P” value is reported as under 1e-05 s⁻¹.
With AUAAAAGCGCCAGAACUACAGAAAUGUAACUGACGAGGAGGAGGUUUAUCGAAUUUUCGACGGAUGCCUCCAAA the “self-cleavage kobs at 10000 uM GlcN6P” value was under 1e-05 s⁻¹.
In the case of AUAAAAGCGCCAGAAAUACAGAAAUGUAAUUGACGAGGAGGAGGUCUAUCGAAUUUUCGGCGGAUGCCUCCAAA, the “self-cleavage kobs at 10000 uM GlcN6P” value is reported as 0.00011 ± 1.8e-05 s⁻¹.
With AUAAAAGCGCCAGAACUACAGAAAUGUAGAUGACGAGGCGGAGGUUUAUCGAAUUUUCGGCGGAUGCCUCCAAA the “self-cleavage kobs at 10000 uM GlcN6P” value was 0.00136 ± 0.00028 s⁻¹.
In the case of AUAAAAGCGCCAGAAAUACAGAAAUGUAGUUGACGCGGAGGAGGUUUAUCGAAUUUACGGUGGAUGUCUCCAAA, the “self-cleavage kobs at 10000 uM GlcN6P” value is reported as under 1e-05 s⁻¹.
With AUAAAAGCGCCAGAACUACAGAAAUUUAGUUGACGAGGAGGAGUUUUAUCGAAUUUUCGGCGGAUGCCUCCAAA the “self-cleavage kobs at 10000 uM GlcN6P” value was 0.000189 ± 3.6e-05 s⁻¹.
AUAAAAGCGCCAGAACUACAGAAAUGUACUUGACGAGGAGGAGGUGUAUCGAAUUUUCGGCGGAUGUCUCCAAA was tested, and the “self-cleavage kobs at 10000 uM GlcN6P” value was 0.000125 ± 3.3e-05 s⁻¹.
For AUAAAAGCGCCAGAAAUACAGAAAUGUAGUUGACGAGGAGGAGGGUUAUCGAAUUUUCGGCGGGUGCCUCCAAA, the “self-cleavage kobs at 10000 uM GlcN6P” value was 0.000258 ± 5.1e-05 s⁻¹.
AUAAAAGCGCCAGAAGUACAGAAAUGUAGUUGACGAGGAGGAUGUUUAUCGAAUUUUCGGCGGAUGCUUCCAAA was tested, and the “self-cleavage kobs at 10000 uM GlcN6P” value was 0.0002 ± 4.7e-05 s⁻¹.
With AUAAAAGCGCCAGAACUACAGAAAUGUAAUUGACGAGGAGGAGGUUUAUCGGAUUUUCGGCGGAUGGCUCCAAA the “self-cleavage kobs at 10000 uM GlcN6P” value was 5.89e-05 ± 1.1e-05 s⁻¹.
With AUAAAAGCGCCAGAUCUACAGAAAUGUAGUUGACGAGGAGGAGGUUUAUCGAAUGUUCGGCGUAUGUCUCCAAA the “self-cleavage kobs at 10000 uM GlcN6P” value was under 1e-05 s⁻¹.
AUAAAAGCGCCAGAUCUACAGAAAUGUAGUUGACGAGGAGGAGUUUUAUCGAAUUUUCGGCGGUUGCCUCCAAA was tested, and the “self-cleavage kobs at 10000 uM GlcN6P” value was under 1e-05 s⁻¹.
In the case of AUAAAAGCGCCAGAAGUACAGAAAUGUAGUUGACGAGGAGGAGGUUUAUCGAACUUUCGGCGGAUGUCUCCAAA, the “self-cleavage kobs at 10000 uM GlcN6P” value is reported as 0.000749 ± 0.00015 s⁻¹.
In the case of AUAAAAGCGCCAGAUCUACAGAAAUGUAGUUGACGAGGAGGAGGUUUAACGGAUUUUCGGCGGAUGCCUCCAAA, the “self-cleavage kobs at 10000 uM GlcN6P” value is reported as under 1e-05 s⁻¹.
In the case of AUAAAAGCGCCAGAACUACAGAAAUGUACUUGACGAGGAGGAGGUUUAUCGAAUUUUCGGCGGAUGCCCCUAAA, the “self-cleavage kobs at 10000 uM GlcN6P” value is reported as 4.54e-05 ± 2.1e-05 s⁻¹.
AUAAAAGCGCCAGAACUACAGAAAUGUAGCUGACGAGGAGGAGGUUUAUCAAAUUUUCGGCGGAUGGCUCCAAA was tested, and the “self-cleavage kobs at 10000 uM GlcN6P” value was under 1e-05 s⁻¹.
AUAAAAGCGCCAGAACUACAGAAAUGUAGCUGACGGGGAGGAGGUUUAUCGAAAUUUCGGCGGAUGCCUCCAAA was tested, and the “self-cleavage kobs at 10000 uM GlcN6P” value was under 1e-05 s⁻¹.
AUAAAAGCGCCAGAAAUACAGAAAUGUAGUCGACGAGGAGGAGGUUUAUCGAAUAUUCGGCGGAUGCCUCCAAA was tested, and the “self-cleavage kobs at 10000 uM GlcN6P” value was 0.000194 ± 3.1e-05 s⁻¹.
In the case of AUAAAAGCGCCAGAACUACAGAAAUGUAGCUAACGAGGAGGAGGUUUAUCGAAUUUUCGGCGGAUACCUCCAAA, the “self-cleavage kobs at 10000 uM GlcN6P” value is reported as 0.001 ± 0.00026 s⁻¹.
In the case of AUAAAAGCGCCAGAAUUACAGAAAUGUAGUAGACGAGGAGGAGGAUUAUCGAAUUUUCGGCGGAUGCCUCCAAA, the “self-cleavage kobs at 10000 uM GlcN6P” value is reported as 0.00606 ± 0.0026 s⁻¹.
For AUAAAAGCGCCAGAACUACAGAAAUGUAAUAGACGAGGAGGAGGGUUAUCGAAUUUUCGGCGGAUGCCUCCAAA, the “self-cleavage kobs at 10000 uM GlcN6P” value was 0.000217 ± 4.5e-05 s⁻¹.
In the case of AUAAAAGCGCCAGAAGUACAGAAAUGUAGUUGACGAGGAGGAGGUUUAUCGAAUGUUUGGCGGAUGCCUCCAAA, the “self-cleavage kobs at 10000 uM GlcN6P” value is reported as 5.56e-05 ± 2.5e-05 s⁻¹.
In the case of AUAAAAGCGCCAGAACUACAGAAAUGUAAUUGAGGAGGAGGAGGUUUAUCGAAUUUUCGGCGGAUGACUCCAAA, the “self-cleavage kobs at 10000 uM GlcN6P” value is reported as under 1e-05 s⁻¹.
For AUAAAAGCGCCAGAACUACAGAAAUGUAUUUGACGAGGAGGAGGUGUAUCGAAUUUUCGGGGGAUACCUCCAAA, the “self-cleavage kobs at 10000 uM GlcN6P” value was under 1e-05 s⁻¹.
AUAAAAGCGCCAGAAGUACAGAAAUGUAGUUUACGAGGAGGAGGUUUAUCGAAUUUUUGGCGGAUGCCUCCAAA was tested, and the “self-cleavage kobs at 10000 uM GlcN6P” value was 0.000423 ± 0.00013 s⁻¹.
With AUAAAAGCGCCAGAUCUACAGAAAUGUAGGUGACGAGGAGGAGGUUUAUCGAAUUUUCGCCGGAUGCCUCCAAA the “self-cleavage kobs at 10000 uM GlcN6P” value was under 1e-05 s⁻¹.
AUAAAAGCGCCAGAAUUACAGAAAUGUAGUGGACGAGGAGGAGGUUUAUCGAAUUUUCGGCGGAUGCCUACAAA was tested, and the “self-cleavage kobs at 10000 uM GlcN6P” value was 8.19e-05 ± 1.7e-05 s⁻¹.
With AUAAAAGCGCCAGAACUACAGAAAUGUACUUGACGAGGAGGAGAUUCAGCGAAUUUGCGCCGGAUGCUUGCAAA the “self-cleavage kobs at 10000 uM GlcN6P” value was under 1e-05 s⁻¹.
AUAAAAGCGCCAGAAGUACAGAAAUGUAGUUGACGAGGAGGAGGUCUAUCGAAUUUUCGGCGGAUGCCUUCAAA was tested, and the “self-cleavage kobs at 10000 uM GlcN6P” value was 0.000325 ± 7.4e-05 s⁻¹.
In the case of AUAAAAGCGCCAGAAAUACAGAAAUGUAGUUGACGAGGAGGAGGUUUAUCGAAUAUUCGGCGGAUGGCUCCAAA, the “self-cleavage kobs at 10000 uM GlcN6P” value is reported as 5.54e-05 ± 1.9e-05 s⁻¹.
In the case of AUAAAAGCGCCAGAAAUACAGAAAUGUAGUUGCCGAGGAGGCGGUUUAUCGAAUUUUCGGCGGAUGCCUCUAAA, the “self-cleavage kobs at 10000 uM GlcN6P” value is reported as under 1e-05 s⁻¹.
In the case of AUAAAAGCGCCAGAACUACCGAAAUGUAGUUGACGAGGAGGAGUUUUAUCGAAUUUUCGGCGGAUGCCUCCAAA, the “self-cleavage kobs at 10000 uM GlcN6P” value is reported as 0.000286 ± 8.9e-05 s⁻¹.
For AUAAAAGCGCCAGAAAUACAGAAAUGUAGUAGACGAGGAGGAGGUUUAUCGAAUUUUCGGCGGAUGCCUUCAAA, the “self-cleavage kobs at 10000 uM GlcN6P” value was 0.00113 ± 0.00026 s⁻¹.
In the case of AUAAAAGCGCCAGAACUACAGAAAUGUACUUGACGAGGAGGAGGAUUAUCGAAUUUUCGGCGGAUGCUUCCAAA, the “self-cleavage kobs at 10000 uM GlcN6P” value is reported as 0.000376 ± 0.00011 s⁻¹.
In the case of AUAAAAGCGCCAGAACUACAGAAAUGUAAUUGACGAGGAUGAGGUUUAUCGAAUUUUCGGCGGAUGCGUCCAAA, the “self-cleavage kobs at 10000 uM GlcN6P” value is reported as under 1e-05 s⁻¹.
AUAAAAGCGCCAGAAUUACAGAAAUGUAGUUGACGAGGCGGAGGUUUAUCGAGUUUUCGGCGGAUGCCUCCAAA was tested, and the “self-cleavage kobs at 10000 uM GlcN6P” value was 0.00494 ± 0.0011 s⁻¹.
With AUAAAAGCGCCAGAAUUACAGAAAUGUAGUUGACGAGGAGGACGUUUAUCGAAUUUUCGGCGGCUGCCUCGAAA the “self-cleavage kobs at 10000 uM GlcN6P” value was under 1e-05 s⁻¹.
